Test system: HTRA1-inhibiting peptides (Example 3-2 and 3-3, members not named)

Sequence of Human plasma kallikrein (chain, as listed by the source): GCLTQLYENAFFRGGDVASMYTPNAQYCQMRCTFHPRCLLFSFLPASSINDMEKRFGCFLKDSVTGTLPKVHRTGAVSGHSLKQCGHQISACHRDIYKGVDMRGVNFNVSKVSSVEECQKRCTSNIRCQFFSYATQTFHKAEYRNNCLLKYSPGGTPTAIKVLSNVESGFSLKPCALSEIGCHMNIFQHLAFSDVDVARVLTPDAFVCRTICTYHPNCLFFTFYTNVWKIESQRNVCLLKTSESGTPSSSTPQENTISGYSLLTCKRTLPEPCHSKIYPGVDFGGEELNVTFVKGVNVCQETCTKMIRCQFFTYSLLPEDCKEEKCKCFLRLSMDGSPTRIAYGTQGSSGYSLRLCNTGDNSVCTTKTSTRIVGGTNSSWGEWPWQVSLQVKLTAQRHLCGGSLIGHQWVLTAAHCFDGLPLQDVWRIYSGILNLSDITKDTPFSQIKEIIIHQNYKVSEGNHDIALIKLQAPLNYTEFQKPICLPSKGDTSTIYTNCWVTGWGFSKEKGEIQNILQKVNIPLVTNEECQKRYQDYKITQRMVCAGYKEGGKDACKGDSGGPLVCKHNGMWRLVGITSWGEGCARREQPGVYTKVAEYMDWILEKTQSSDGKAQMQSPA

Row | Substance | protease activity (decomposition of a peptide substrate)
1 | Human uPA | did not suppress the protease activity of any of the proteases at a final inhibitor concentration of 1 micro M
2 | Human thrombin | did not suppress the protease activity of any of the proteases at a final inhibitor concentration of 1 micro M
3 | Bovine α-chymotrypsin | did not suppress the protease activity of any of the proteases at a final inhibitor concentration of 1 micro M
4 | Human tryptase | did not suppress the protease activity of any of the proteases at a final inhibitor concentration of 1 micro M
5 | Human plasma kallikrein | did not suppress the protease activity of any of the proteases at a final inhibitor concentration of 1 micro M
6 | Human protein C | did not suppress the protease activity of any of the proteases at a final inhibitor concentration of 1 micro M

— patent US20200377573
